# Data reported in patent publication US20230220104A1.
# Where two headings read alike, the source gives them in different places.
# Experiments:
# Experiment in all cases: cell-based or functional assay
# [1] = target: human CD73 on cells (H322, MDA-MB-231, HT-144, T cells, CD73-transfected HEK293T) (human) (UniProt P21589)
# [2] = target: human CD73 on cells (H322, MDA-MB-231, HT-144, T cells, CD73-transfected HEK293T) (human) (UniProt P21589); remark: listed apart in the source
# [3] = target: human CD73 on cells (H322, MDA-MB-231, HT-144, T cells, CD73-transfected HEK293T) (human) (UniProt P21589); remark: listed apart in the source
# Sequence of human CD73 on cells (H322, MDA-MB-231, HT-144, T cells, CD73-transfected HEK293T) (human) (P21589 27-549): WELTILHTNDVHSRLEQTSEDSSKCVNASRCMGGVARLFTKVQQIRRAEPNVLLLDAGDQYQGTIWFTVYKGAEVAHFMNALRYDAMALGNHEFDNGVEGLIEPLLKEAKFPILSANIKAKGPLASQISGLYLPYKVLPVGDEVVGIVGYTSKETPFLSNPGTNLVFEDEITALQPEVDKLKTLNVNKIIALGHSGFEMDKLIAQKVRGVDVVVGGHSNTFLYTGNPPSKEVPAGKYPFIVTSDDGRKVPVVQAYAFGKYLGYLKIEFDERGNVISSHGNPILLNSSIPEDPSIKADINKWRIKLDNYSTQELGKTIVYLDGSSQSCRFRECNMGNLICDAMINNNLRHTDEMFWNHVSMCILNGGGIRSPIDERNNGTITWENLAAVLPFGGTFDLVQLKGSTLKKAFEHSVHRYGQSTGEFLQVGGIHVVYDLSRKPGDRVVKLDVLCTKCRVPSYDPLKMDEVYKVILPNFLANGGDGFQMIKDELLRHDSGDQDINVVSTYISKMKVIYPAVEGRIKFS
substance,measurement,setting,value
Benchmark antibody (antibody having the same sequences as the published variable regions of MEDI9447),"IC50 of AMP degradation suppressive function, H322 cells",[1],0.02 µg/mL
same,IC50 of AMP degradation suppressive function (cell line of Table 7 not stated; H322 in FIG. 12),[2],0.007 µg/mL
same,"IC50 of AMP degradation suppressive function, H322 cells",[2],0.091 µg/mL
same,"IC50 of AMP degradation suppressive function, MDA-MB-231 cells",[2],0.111 µg/mL
same,"IC50 of AMP degradation suppressive function, H322 cells",[3],0.04 µg/mL
